Assay [1] has as its target HLA-B*15:17. Put plainly: IEDB peptide-MHC binding, purified MHC/direct/fluorescence; filed as Kd, often an IC50 or EC50 that approximates it; ≥ and ≤ were set here for values at or beyond the usual limits of such assays.
Assay [2] has as its target HLA-B*57:01. The description is as above.
Assay [3] has as its target HLA-B*58:01. Described as above.
The target in assay [4] is HLA-A*02:01. Put plainly: IEDB peptide-MHC binding, purified MHC/competitive/fluorescence; ≥ and ≤ were set here for values at or beyond the usual limits of such assays.
Assay [5] deals with HLA-B*08:01. The description is as above.
For assay [6], the target named is HLA-A*02:03. Description: IEDB peptide-MHC binding, purified MHC/direct/fluorescence; filed as Kd, often an IC50 or EC50 that approximates it; ≥ and ≤ were set here for values at or beyond the usual limits of such assays. To be noted: source organism: Mycobacterium tuberculosis str. Haarlem.
For assay [7], the target named is HLA-A*01:01. The assay is described as above.
The target in assay [8] is HLA-A*02:01. The description is as above.
In assay [9] the target is HLA-A*03:01. The assay is described as above.
The target of assay [10] is HLA-A*26:01. The description is as above. To be noted: source organism: Salmonella enterica subsp. enterica serovar Typhimurium.
The target in assay [11] is HLA-B*07:02. The description is as above.
Assay [12] addresses HLA-B*15:01. The description is as above.
In assay [13] the target is HLA-B*27:05. The description is as above.
The target in assay [14] is HLA-A*02:01. Put plainly: IEDB peptide-MHC binding, purified MHC/competitive/radioactivity; filed as Kd, often an IC50 or EC50 that approximates it; ≥ and ≤ were set here for values at or beyond the usual limits of such assays.
In assay [15] the target is HLA-A*02:06. The assay is described as above.
Assay [16] concerns the target HLA-A*02:17. The description is as above.
The target in assay [17] is HLA-A*11:01. Put plainly: IEDB peptide-MHC binding, purified MHC/direct/fluorescence; filed as Kd, often an IC50 or EC50 that approximates it; ≥ and ≤ were set here for values at or beyond the usual limits of such assays.
Assay [18] addresses HLA-A*31:01. Described as above.
Assay [19] addresses HLA-A*69:01. The description is as above.
Assay [20] has as its target HLA-B*18:01. The assay is described as above.
The target in assay [21] is HLA-B*39:01. The assay is described as above.
Assay [22] has as its target HLA-B*40:01. Described as above.
Assay [23] concerns the target HLA-B*46:01. The description is as above.
In assay [24] the target is HLA-B*48:01. The description is as above.
The target of assay [25] is HLA-B*51:01. The description is as above. The note with it: source organism: Mycobacterium tuberculosis.
Assay [26] deals with HLA-A*29:02. The assay is described as above.
The target of assay [27] is HLA-B*44:02. Described as above.
In assay [28] the target is HLA-A*11:01. Put plainly: IEDB peptide-MHC binding, purified MHC/competitive/fluorescence; ≥ and ≤ were set here for values at or beyond the usual limits of such assays. To be noted: source organism: Zaire ebolavirus.
The target of assay [29] is HLA-A*24:02. Described as above. The note with it: source organism: Zaire ebolavirus.
Assay [30] addresses HLA-A*02:03. Description: IEDB peptide-MHC binding, purified MHC/competitive/radioactivity; filed as Kd, often an IC50 or EC50 that approximates it; ≥ and ≤ were set here for values at or beyond the usual limits of such assays. The note with it: source organism: Dengue virus 2 Jamaica/1409/1983.
Where [31] appears, read: source organism: Lake Victoria marburgvirus - Popp.
The mark [32] stands for this setting: source organism: Vaccinia virus.
Setting [33] is: source organism: Salmonella enterica subsp. enterica serovar Typhimurium.
Setting [34] is: source organism: Dengue virus 2 Jamaica/1409/1983.
Where [35] appears, read: source organism: Mycobacterium tuberculosis.
Setting [36] is: source organism: West Nile virus.
[37] abbreviates: source organism: Dengue virus 3 China/80-2/1980.
The mark [38] stands for this setting: source organism: Vibrio cholerae.
Where [39] appears, read: source organism: Zaire ebolavirus.
Setting [40] is: source organism: Dengue virus 1 Singapore/S275/1990.
Setting [41] is: source organism: Dengue virus 1 Brazil/97-11/1997.
Setting [42] is: source organism: Yellow fever virus.
Where [43] appears, read: source organism: Dengue virus 4 Philippines/H241/1956.
Where [44] appears, read: source organism: Mycobacterium avium 104.

We go through 19 sequences from the Immune Epitope Database (IEDB).

Broadly, the Kd is the free concentration of one partner at which half of the binding sites on the other are occupied at equilibrium, for simple one-to-one binding. Consider ITDITSPLW, for which the Kd is no more than 1 nM in [1] (setting [31]), 0.0645 µM in [2] (setting [31]) and 3 nM in assay [3] (setting [31]).
For orientation: IC50 means the midpoint of a concentration-inhibition curve. The low end stands for higher potency, the high end for lower potency. As for FRAFRNLNV, the IC50 in assay [4] (setting [32]) is no less than 89.1 µM; in assay [5] (setting [32]) it was 6.19 µM.
With AMWDWSKSV, in assay [6], the Kd was no more than 1 nM.
KSNGAQQWL: the Kd in assay [7] (setting [33]), in assay [8] (setting [33]), in [9] (setting [33]), in assay [10], in [11] (setting [33]) and in [12] (setting [33]) was no less than 20 µM in each case. Further, the Kd was 6 nM in assay [1] (setting [33]), no less than 20 µM in assay [13] (setting [33]), 2.16 µM in assay [2] (setting [33]) and 355 nM in assay [3] (setting [33]).
IILEFFLIVL: the figures for the Kd in [14] (setting [34]), in [15] (setting [34]) and in assay [16] (setting [34]) were 109 nM, 325 nM and 802 nM, respectively.
With GPRGRHVVL, the Kd in assay [7] (setting [35]), in [8] (setting [35]), in assay [9] (setting [35]), in assay [17] (setting [35]), in assay [18] (setting [35]) and in assay [19] (setting [35]) was no less than 20 µM throughout. The equilibrium dissociation constant (Kd) in [12] (setting [35]) is no less than 20 µM; in assay [1] (setting [35]), no less than 20000 nM; in [20] (setting [35]), no less than 20 µM; in assay [13] (setting [35]), no less than 20 µM; in [21] (source organism: Mycobacterium tuberculosis str. Haarlem), no less than 20000 nM; in [22] (setting [35]) it was no less than 20 µM. The Kd in assay [23] (setting [35]) is no less than 20 µM; in assay [24] (setting [35]) it was no less than 20 µM; in assay [25], no less than 20 µM; in assay [2] (setting [35]) it was no less than 20 µM; in [3] (setting [35]) it was no less than 20000 nM.
Turning to YCPGTTVTL, the Kd in assay [7] (setting [36]), in assay [9] (setting [36]), in assay [17] (setting [36]), in [26] (setting [36]), in assay [18] (setting [36]) and in assay [19] (setting [36]) was no less than 20 µM throughout. In addition, the Kd in [11] (setting [36]) was no less than 20 µM; in [12] (setting [36]), no less than 20 µM; in [20] (setting [36]), no less than 20 µM; in [13] (setting [36]), no less than 20 µM; in [21] (setting [36]), 1310 nM; in assay [22] (setting [36]) it was no less than 20 µM. The Kd in assay [27] (setting [36]), in assay [23] (setting [36]), in assay [24] (setting [36]) and in assay [2] (setting [36]) was no less than 20 µM each time.
For IMAAILAYTI, the Kd stood at 30.6 nM in [14] (setting [34]) and 1600 nM in [16] (setting [34]).
For the sequence VLLLVTHYA, the figures for the Kd in [14] (setting [37]) and in [16] (setting [37]) were 6.97 nM and 6820 nM, respectively.
Regarding QMEQWGCPW, the results for the Kd in [1] (setting [38]), in assay [2] (setting [38]) and in assay [3] (setting [38]) were 147 nM, 5.43 µM and 1060 nM, respectively.
QGIVRQRVI: the IC50 was no less than 401 µM in [4] (setting [39]), no less than 159 µM in assay [28], 11.4 µM in assay [29] and 7.35 µM in [5] (setting [39]).
Regarding MLLMLLPTA, the Kd in assay [14] (setting [40]) came out at 0.482 nM; in assay [15] (setting [41]) it was 1.08 nM; in assay [16] (setting [40]) it was 161 nM.
As for VNRWLFRHL, the Kd in [7] (setting [42]), in assay [8] (setting [42]), in assay [9] (setting [42]), in assay [26] (setting [42]), in assay [18] (setting [42]) and in assay [19] (setting [42]) was no less than 20 µM in each case. The Kd in [11] (setting [42]), in assay [12] (setting [42]), in assay [20] (setting [42]), in assay [13] (setting [42]), in assay [22] (setting [42]) and in assay [27] (setting [42]) was no less than 20 µM throughout. For the same sequence, the Kd in assay [23] (setting [42]) was no less than 20 µM; in [24] (setting [42]) it was no less than 20 µM; in [2] (setting [42]) it was no less than 20 µM; in assay [3] (setting [42]) it was no less than 20000 nM.
Regarding LLLTLLATV, the Kd was 1.55 nM in assay [30], 1.01 nM in assay [15] (setting [34]) and 157 nM in [16] (setting [34]).
As to YMWLGARFL, the Kd in [14] (setting [34]) was found to be 6.72 nM; in assay [16] (setting [34]) it was 94.2 nM.
DMDYHKILT: the IC50 is no less than 277 µM in assay [4] (setting [39]), 4.04 µM in assay [29] and no less than 199 µM in assay [5] (setting [39]).
On to IILEFFLMVL, for which the figures for the Kd in assay [14] (setting [43]), in [15] (setting [41]) and in [16] (setting [43]) were 95.5 nM, 329 nM and 1400 nM, respectively.
For QLANAIFKL, the Kd is 4.09 nM in [14] (setting [37]) and 24.4 nM in assay [16] (setting [37]).
For EHVQGDIDL, the Kd in [7] (setting [44]), in assay [8] (setting [44]), in assay [9] (setting [44]), in assay [17] (setting [44]), in assay [26] (setting [44]) and in [18] (setting [44]) was no less than 20 µM throughout. Besides, the Kd in assay [19] (setting [44]) is no less than 20 µM; in assay [11] (setting [44]), no less than 20 µM; in assay [12] (setting [44]), no less than 20 µM; in assay [20] (setting [44]), no less than 20 µM; in [13] (setting [44]), no less than 20 µM; in assay [21] (setting [44]), 224 nM. Moreover, the Kd in assay [27] (setting [44]) was no less than 20 µM; in assay [23] (setting [44]), no less than 20 µM; in [24] (setting [44]) it was no less than 20 µM; in [2] (setting [44]), no less than 20 µM; in assay [3] (setting [44]), no less than 20000 nM.
